Consider one protein from patent US20120022129.

The data set has as its target flag-tagged WT HDAC2 (1-488).

Chain of flag-tagged WT HDAC2 (1-488) (chain, as listed by the source): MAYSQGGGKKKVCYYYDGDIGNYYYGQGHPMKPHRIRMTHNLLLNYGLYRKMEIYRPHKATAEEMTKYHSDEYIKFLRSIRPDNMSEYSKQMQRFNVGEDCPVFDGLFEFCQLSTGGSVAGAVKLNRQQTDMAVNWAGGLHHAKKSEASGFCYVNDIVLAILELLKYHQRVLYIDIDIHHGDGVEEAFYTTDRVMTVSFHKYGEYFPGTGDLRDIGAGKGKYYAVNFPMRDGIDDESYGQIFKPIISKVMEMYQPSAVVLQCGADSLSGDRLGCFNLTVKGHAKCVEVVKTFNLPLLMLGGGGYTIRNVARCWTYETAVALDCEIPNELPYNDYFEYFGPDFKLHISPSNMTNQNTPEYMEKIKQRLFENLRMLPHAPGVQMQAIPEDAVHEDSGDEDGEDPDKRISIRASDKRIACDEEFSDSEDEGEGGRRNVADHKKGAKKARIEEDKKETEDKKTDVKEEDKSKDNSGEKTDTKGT

B1: protein kinase CK2 catalytic subunit CK2α (protein)
chain: MSGPVPSRARVYTDVNTHRPREYWDYESHVVEWGNQDDYQLVRKLGRGKYSEVFEAINITNNEKVVVKILKPVKKKKIKREIKILENLRGGPNIITLADIVKDPVSRTPALVFEHVNNTDFKQLYQTLTDYDIRFYMYEILKALDYCHSMGIMHRDVKPHNVMIDHEHRKLRLIDWGLAEFYHPGQEYNVRVASRYFKGPELLVDYQMYDYSLDMWSLGCMLASMIFRKEPFFHGHDNYDQLVRIAKVLGTEDLYDYIDKYNIELDPRFNDILGRHSRKRWERFVHSENQHLVSPEALDFLDKLLRYDHQSRLTAREAMEHPYFYTVVKDQARMGSSSMPGGSTPVSSANMMSGISSVPTPSPLGPLAGSPVIAAANPLGMPVPAAAGAQQ
Take B1: the “HDAC2 serine phosphorylation (phospho-serine western blot of immunoprecipitated flag-tagged HDAC2)” value was “HDAC2 phosphorylation seemed to correlate with the level of CK2α binding”.
